{"source": "paper doi:10.1101/2021.03.12.434960", "about": "(bioRxiv, 2021)", "binders": {"B1": {"name": "full-length human KIF5C, C-terminal mScarlet-StrepII (natural protein)", "chain": "MADPAECSIKVMCRFRPLNEAEILRGDKFIPKFKGDETVVIGQGKPYVFDRVLPPNTTQEQVYNACAKQIVKDVLEGYNGTIFAYGQTSSGKTHTMEGKLHDPQLMGIIPRIAHDIFDHIYSMDENLEFHIKVSYFEIYLDKIRDLLDVSKTNLAVHEDKNRVPYVKGCTERFVSSPEEVMDVIDEGKANRHVAVTNMNEHSSRSHSIFLINIKQENVETEKKLSGKLYLVDLAGSEKVSKTGAEGAVLDEAKNINKSLSALGNVISALAEGTKTHVPYRDSKMTRILQDSLGGNCRTTIVICCSPSVFNEAETKSTLMFGQRAKTIKNTVSVNLELTAEEWKKKYEKEKEKNKTLKNVIQHLEMELNRWRNGEAVPEDEQISAKDQKNLEPCDNTPIIDNIAPVVAGISTEEKEKYDEEISSLYRQLDDKDDEINQQSQLAEKLKQQMLDQDELLASTRRDYEKIQEELTRLQIENEAAKDEVKEVLQALEELAVNYDQKSQEVEDKTRANEQLTDELAQKTTTLTTTQRELSQLQELSNHQKKRATEILNLLLKDLGEIGGIIGTNDVKTLADVNGVIEEEFTMARLYISKMKSEVKSLVNRSKQLESAQMDSNRKMNASERELAACQLLISQHEAKIKSLTDYMQNMEQKRRQLEESQDSLSEELAKLRAQEKMHEVSFQDKEKEHLTRLQDAEEMKKALEQQMESHREAHQKQLSRLRDEIEEKQKIIDEIRDLNQKLQLEQEKLSSDYNKLKIEDQEREMKLEKLLLLNDKREQAREDLKGLEETVSRELQTLHNLRKLFVQDLTTRVKKSVELDNDDGGGSAAQKQKISFLENNLEQLTKVHKQLVRDNADLRCELPKLEKRLRATAERVKALESALKEAKENAMRDRKRYQQEVDRIKEAVRAKNMARRAHSAQIAKPIRPGHYPASSPTAVHAIRGGGGSSSNSTHYQK"}, "B2": {"name": "human KLC1 with N-terminal 6xHis-FLAG (co-expressed with KIF5) (natural protein)", "chain": "MYDNMSTMVYIKEDKLEKLTQDEIISKTKQVIQGLEALKNEHNSILQSLLETLKCLKKDDESNLVEEKSNMIRKSLEMLELGLSEAQVMMALSNHLNAVESEKQKLRAQVRRLCQENQWLRDELANTQQKLQKSEQSVAQLEEEKKHLEFMNQLKKYDDDISPSEDKDTDSTKEPLDDLFPNDEDDPGQGIQQQHSSAAAAAQQGGYEIPARLRTLHNLVIQYASQGRYEVAVPLCKQALEDLEKTSGHDHPDVATMLNILALVYRDQNKYKDAANLLNDALAIREKTLGKDHPAVAATLNNLAVLYGKRGKYKEAEPLCKRALEIREKVLGKDHPDVAKQLNNLALLCQNQGKYEEVEYYYQRALEIYQTKLGPDDPNVAKTKNNLASCYLKQGKFKQAETLYKEILTRAHEREFGSVDDENKPIWMHAEEREECKGKQKDGTSFGEYGGWYKACKVDSPTVTTTLKNLGALYRRQGKFEAAETLEEAAMRSRKQGLDNVHKQRVAEVLNDPENMEKRRSRESLNVDVVKYESGPDGGEEVSMSVEWNGGVSGRASFCGKRQQQQWPGRRHR"}, "B3": {"name": "KLC1-CC (aa 1-200), N-terminal 6xHis-2xStrepII-sfGFP (domain or fragment)", "chain": "MYDNMSTMVYIKEDKLEKLTQDEIISKTKQVIQGLEALKNEHNSILQSLLETLKCLKKDDESNLVEEKSNMIRKSLEMLELGLSEAQVMMALSNHLNAVESEKQKLRAQVRRLCQENQWLRDELANTQQKLQKSEQSVAQLEEEKKHLEFMNQLKKYDDDISPSEDKDTDSTKEPLDDLFPNDEDDPGQGIQQQHSSAAA"}}, "key": {"SEC-MALS": {"target": "the molecule itself", "assay": "SEC-MALS"}, "[1]": {"target": "T1, full-length human KIF5A, C-terminal mScarlet-StrepII (human, UniProt Q12840 1-1032)", "T1 sequence": "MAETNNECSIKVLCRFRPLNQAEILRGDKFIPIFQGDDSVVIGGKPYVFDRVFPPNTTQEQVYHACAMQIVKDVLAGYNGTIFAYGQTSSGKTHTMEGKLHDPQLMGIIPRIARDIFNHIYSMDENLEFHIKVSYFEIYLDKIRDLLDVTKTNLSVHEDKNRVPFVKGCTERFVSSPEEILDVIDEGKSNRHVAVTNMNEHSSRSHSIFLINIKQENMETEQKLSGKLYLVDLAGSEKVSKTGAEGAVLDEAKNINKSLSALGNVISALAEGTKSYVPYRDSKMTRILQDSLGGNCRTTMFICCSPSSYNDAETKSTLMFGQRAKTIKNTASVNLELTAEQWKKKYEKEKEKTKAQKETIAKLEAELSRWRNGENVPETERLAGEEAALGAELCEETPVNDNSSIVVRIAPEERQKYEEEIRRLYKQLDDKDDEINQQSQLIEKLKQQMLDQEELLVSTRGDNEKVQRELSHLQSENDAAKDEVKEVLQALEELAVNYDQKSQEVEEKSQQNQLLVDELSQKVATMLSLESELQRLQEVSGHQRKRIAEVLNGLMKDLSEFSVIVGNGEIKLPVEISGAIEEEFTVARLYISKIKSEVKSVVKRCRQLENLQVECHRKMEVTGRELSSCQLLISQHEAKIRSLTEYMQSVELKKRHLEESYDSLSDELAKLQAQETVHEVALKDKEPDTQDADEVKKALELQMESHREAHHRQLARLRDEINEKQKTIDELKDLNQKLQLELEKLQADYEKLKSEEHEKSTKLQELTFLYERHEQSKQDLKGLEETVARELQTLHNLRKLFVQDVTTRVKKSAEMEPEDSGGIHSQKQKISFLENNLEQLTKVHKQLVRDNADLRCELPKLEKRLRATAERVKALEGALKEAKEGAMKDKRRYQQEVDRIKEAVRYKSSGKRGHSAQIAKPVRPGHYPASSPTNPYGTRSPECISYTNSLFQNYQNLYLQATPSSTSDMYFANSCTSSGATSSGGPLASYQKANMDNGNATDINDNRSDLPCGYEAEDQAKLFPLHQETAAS"}, "[2]": {"target": "T2, full-length human KIF5B, C-terminal mScarlet-StrepII (human, UniProt P33176 1-963)", "T2 sequence": "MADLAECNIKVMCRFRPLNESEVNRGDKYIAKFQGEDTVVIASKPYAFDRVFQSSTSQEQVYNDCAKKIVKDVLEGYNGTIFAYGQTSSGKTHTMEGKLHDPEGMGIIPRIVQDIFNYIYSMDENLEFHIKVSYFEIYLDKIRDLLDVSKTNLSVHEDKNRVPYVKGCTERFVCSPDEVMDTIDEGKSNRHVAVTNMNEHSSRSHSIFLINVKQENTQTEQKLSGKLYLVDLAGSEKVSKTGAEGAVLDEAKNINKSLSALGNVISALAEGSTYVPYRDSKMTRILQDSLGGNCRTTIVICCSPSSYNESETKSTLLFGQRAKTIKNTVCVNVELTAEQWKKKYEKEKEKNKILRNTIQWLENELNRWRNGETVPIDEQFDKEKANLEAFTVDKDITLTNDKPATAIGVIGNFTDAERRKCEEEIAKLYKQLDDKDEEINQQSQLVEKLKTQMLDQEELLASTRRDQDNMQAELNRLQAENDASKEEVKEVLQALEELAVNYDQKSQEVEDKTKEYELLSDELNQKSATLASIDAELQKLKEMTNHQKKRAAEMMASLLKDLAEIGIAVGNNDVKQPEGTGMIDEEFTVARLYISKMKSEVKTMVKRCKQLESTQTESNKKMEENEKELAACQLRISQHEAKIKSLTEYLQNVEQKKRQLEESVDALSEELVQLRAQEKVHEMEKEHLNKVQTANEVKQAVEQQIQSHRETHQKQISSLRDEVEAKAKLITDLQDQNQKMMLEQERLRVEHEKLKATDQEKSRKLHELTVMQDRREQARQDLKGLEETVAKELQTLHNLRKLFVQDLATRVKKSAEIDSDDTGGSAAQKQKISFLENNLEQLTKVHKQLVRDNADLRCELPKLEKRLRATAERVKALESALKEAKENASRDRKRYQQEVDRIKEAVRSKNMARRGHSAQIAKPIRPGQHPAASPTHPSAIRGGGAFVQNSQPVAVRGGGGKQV"}, "[3]": {"target": "B1"}, "[4]": {"target": "T3, KIF5B-Δhinge (Δ505-610), C-terminal mScarlet-StrepII (human, UniProt P33176 1-963, Δ505-610)", "T3 sequence": "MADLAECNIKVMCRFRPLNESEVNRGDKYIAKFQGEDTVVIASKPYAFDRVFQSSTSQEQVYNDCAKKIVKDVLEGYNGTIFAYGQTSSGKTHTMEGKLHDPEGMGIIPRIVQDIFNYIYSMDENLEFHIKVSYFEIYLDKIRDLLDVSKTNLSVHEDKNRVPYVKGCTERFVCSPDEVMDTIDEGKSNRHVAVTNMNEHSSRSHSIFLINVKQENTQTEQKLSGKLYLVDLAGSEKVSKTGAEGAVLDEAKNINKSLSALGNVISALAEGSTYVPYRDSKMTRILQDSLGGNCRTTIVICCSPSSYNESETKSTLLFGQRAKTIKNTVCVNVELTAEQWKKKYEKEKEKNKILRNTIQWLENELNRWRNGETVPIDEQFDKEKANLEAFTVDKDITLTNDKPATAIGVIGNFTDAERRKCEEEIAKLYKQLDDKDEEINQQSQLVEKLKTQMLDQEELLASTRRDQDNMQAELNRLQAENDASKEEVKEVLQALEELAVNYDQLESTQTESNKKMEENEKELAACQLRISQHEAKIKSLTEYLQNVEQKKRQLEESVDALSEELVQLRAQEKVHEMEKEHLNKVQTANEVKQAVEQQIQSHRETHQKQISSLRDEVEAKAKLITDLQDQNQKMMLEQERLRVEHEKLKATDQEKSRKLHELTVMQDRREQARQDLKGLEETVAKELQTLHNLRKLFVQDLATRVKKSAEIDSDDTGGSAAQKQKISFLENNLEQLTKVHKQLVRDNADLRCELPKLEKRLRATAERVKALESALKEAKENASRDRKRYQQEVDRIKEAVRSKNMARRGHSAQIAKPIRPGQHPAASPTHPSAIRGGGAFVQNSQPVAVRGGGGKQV", "assay": "TIRF microscopy on surface-bound microtubules"}}}
{"binder": "B1", "values": [{"measurement": "stoichiometry N", "setting": "SEC-MALS", "result": 2}]}
{"binder": "B2", "values": [{"measurement": "stoichiometry N", "setting": "[1]", "result": "~0.8", "unit": "KLC1 per KHC"}, {"measurement": "stoichiometry N", "setting": "[2]", "result": "~0.8", "unit": "KLC1 per KHC"}, {"measurement": "stoichiometry N", "setting": "[3]", "result": "~0.8", "unit": "KLC1 per KHC"}]}
{"binder": "B3", "values": [{"measurement": "binding result", "setting": "[4]", "result": "binds"}]}
